Assay results taken from patent publication US10919943B2, “Mutant proteins enabling agrochemical control of plant gene expression” (The Regents of the University of California, priority 2016, dated 2021).

B1: G247A: HAB1 mutant (protein, UniProt Q9CAJ0 23-511, looked up, variant G247A)
Protein phosphatase 2C 16: SPVEITQLKNVTDAADLLSDSENQSFCNGGTECTMEDVSELEEVGEQDLLKTLSDTRSGSSNVFDEDDVLSVVEDNSAVISEGLLVVDAGSELSLSNTAMEIDNGRVLATAIIVGESSIEQVPTAEVLIAGVNQDTNTSEVVIRLPDENSNHLVKGRSVYELDCIPLWGTVSIQGNRSEMEDAFAVSPHFLKLPIKMLMGDHEGMSPSLTHLTGHFFGVYDGHGAHKVADYCRDRLHFALAEEIERIKDELCKRNTGEGRQVQWDKVFTSCFLTVDGEIEGKIGRAVVGSSDKVLEAVASETVGSTAVVALVCSSHIVVSNCGDSRAVLFRGKEAMPLSVDHKPDREDEYARIENAGGKVIQWQGARVFGVLAMSRSIGDRYLKPYVIPEPEVTFMPRSREDECLILASDGLWDVMNNQEVCEIARRRILMWHKKNGAPPLAERGKGIDPACQAAADYLSMLALQKGSKDNISIIVIDLKAQRKFKTRT
B2: G247T: HAB1 mutant (protein, UniProt Q9CAJ0 23-511, looked up, variant G247T)
Protein phosphatase 2C 16: SPVEITQLKNVTDAADLLSDSENQSFCNGGTECTMEDVSELEEVGEQDLLKTLSDTRSGSSNVFDEDDVLSVVEDNSAVISEGLLVVDAGSELSLSNTAMEIDNGRVLATAIIVGESSIEQVPTAEVLIAGVNQDTNTSEVVIRLPDENSNHLVKGRSVYELDCIPLWGTVSIQGNRSEMEDAFAVSPHFLKLPIKMLMGDHEGMSPSLTHLTGHFFGVYDGHGTHKVADYCRDRLHFALAEEIERIKDELCKRNTGEGRQVQWDKVFTSCFLTVDGEIEGKIGRAVVGSSDKVLEAVASETVGSTAVVALVCSSHIVVSNCGDSRAVLFRGKEAMPLSVDHKPDREDEYARIENAGGKVIQWQGARVFGVLAMSRSIGDRYLKPYVIPEPEVTFMPRSREDECLILASDGLWDVMNNQEVCEIARRRILMWHKKNGAPPLAERGKGIDPACQAAADYLSMLALQKGSKDNISIIVIDLKAQRKFKTRT
B3: G247M: HAB1 mutant (protein, UniProt Q9CAJ0 23-511, looked up, variant G247M)
Protein phosphatase 2C 16: SPVEITQLKNVTDAADLLSDSENQSFCNGGTECTMEDVSELEEVGEQDLLKTLSDTRSGSSNVFDEDDVLSVVEDNSAVISEGLLVVDAGSELSLSNTAMEIDNGRVLATAIIVGESSIEQVPTAEVLIAGVNQDTNTSEVVIRLPDENSNHLVKGRSVYELDCIPLWGTVSIQGNRSEMEDAFAVSPHFLKLPIKMLMGDHEGMSPSLTHLTGHFFGVYDGHGMHKVADYCRDRLHFALAEEIERIKDELCKRNTGEGRQVQWDKVFTSCFLTVDGEIEGKIGRAVVGSSDKVLEAVASETVGSTAVVALVCSSHIVVSNCGDSRAVLFRGKEAMPLSVDHKPDREDEYARIENAGGKVIQWQGARVFGVLAMSRSIGDRYLKPYVIPEPEVTFMPRSREDECLILASDGLWDVMNNQEVCEIARRRILMWHKKNGAPPLAERGKGIDPACQAAADYLSMLALQKGSKDNISIIVIDLKAQRKFKTRT
B4: G247Y: HAB1 mutant (protein, UniProt Q9CAJ0 23-511, looked up, variant G247Y)
Protein phosphatase 2C 16: SPVEITQLKNVTDAADLLSDSENQSFCNGGTECTMEDVSELEEVGEQDLLKTLSDTRSGSSNVFDEDDVLSVVEDNSAVISEGLLVVDAGSELSLSNTAMEIDNGRVLATAIIVGESSIEQVPTAEVLIAGVNQDTNTSEVVIRLPDENSNHLVKGRSVYELDCIPLWGTVSIQGNRSEMEDAFAVSPHFLKLPIKMLMGDHEGMSPSLTHLTGHFFGVYDGHGYHKVADYCRDRLHFALAEEIERIKDELCKRNTGEGRQVQWDKVFTSCFLTVDGEIEGKIGRAVVGSSDKVLEAVASETVGSTAVVALVCSSHIVVSNCGDSRAVLFRGKEAMPLSVDHKPDREDEYARIENAGGKVIQWQGARVFGVLAMSRSIGDRYLKPYVIPEPEVTFMPRSREDECLILASDGLWDVMNNQEVCEIARRRILMWHKKNGAPPLAERGKGIDPACQAAADYLSMLALQKGSKDNISIIVIDLKAQRKFKTRT
B5: G247Q: HAB1 mutant (protein, UniProt Q9CAJ0 23-511, looked up, variant G247Q)
Protein phosphatase 2C 16: SPVEITQLKNVTDAADLLSDSENQSFCNGGTECTMEDVSELEEVGEQDLLKTLSDTRSGSSNVFDEDDVLSVVEDNSAVISEGLLVVDAGSELSLSNTAMEIDNGRVLATAIIVGESSIEQVPTAEVLIAGVNQDTNTSEVVIRLPDENSNHLVKGRSVYELDCIPLWGTVSIQGNRSEMEDAFAVSPHFLKLPIKMLMGDHEGMSPSLTHLTGHFFGVYDGHGQHKVADYCRDRLHFALAEEIERIKDELCKRNTGEGRQVQWDKVFTSCFLTVDGEIEGKIGRAVVGSSDKVLEAVASETVGSTAVVALVCSSHIVVSNCGDSRAVLFRGKEAMPLSVDHKPDREDEYARIENAGGKVIQWQGARVFGVLAMSRSIGDRYLKPYVIPEPEVTFMPRSREDECLILASDGLWDVMNNQEVCEIARRRILMWHKKNGAPPLAERGKGIDPACQAAADYLSMLALQKGSKDNISIIVIDLKAQRKFKTRT
B6: G247E: HAB1 mutant (protein, UniProt Q9CAJ0 23-511, looked up, variant G247E)
Protein phosphatase 2C 16: SPVEITQLKNVTDAADLLSDSENQSFCNGGTECTMEDVSELEEVGEQDLLKTLSDTRSGSSNVFDEDDVLSVVEDNSAVISEGLLVVDAGSELSLSNTAMEIDNGRVLATAIIVGESSIEQVPTAEVLIAGVNQDTNTSEVVIRLPDENSNHLVKGRSVYELDCIPLWGTVSIQGNRSEMEDAFAVSPHFLKLPIKMLMGDHEGMSPSLTHLTGHFFGVYDGHGEHKVADYCRDRLHFALAEEIERIKDELCKRNTGEGRQVQWDKVFTSCFLTVDGEIEGKIGRAVVGSSDKVLEAVASETVGSTAVVALVCSSHIVVSNCGDSRAVLFRGKEAMPLSVDHKPDREDEYARIENAGGKVIQWQGARVFGVLAMSRSIGDRYLKPYVIPEPEVTFMPRSREDECLILASDGLWDVMNNQEVCEIARRRILMWHKKNGAPPLAERGKGIDPACQAAADYLSMLALQKGSKDNISIIVIDLKAQRKFKTRT
B7: G247W: HAB1 mutant (protein, UniProt Q9CAJ0 23-511, looked up, variant G247W)
Protein phosphatase 2C 16: SPVEITQLKNVTDAADLLSDSENQSFCNGGTECTMEDVSELEEVGEQDLLKTLSDTRSGSSNVFDEDDVLSVVEDNSAVISEGLLVVDAGSELSLSNTAMEIDNGRVLATAIIVGESSIEQVPTAEVLIAGVNQDTNTSEVVIRLPDENSNHLVKGRSVYELDCIPLWGTVSIQGNRSEMEDAFAVSPHFLKLPIKMLMGDHEGMSPSLTHLTGHFFGVYDGHGWHKVADYCRDRLHFALAEEIERIKDELCKRNTGEGRQVQWDKVFTSCFLTVDGEIEGKIGRAVVGSSDKVLEAVASETVGSTAVVALVCSSHIVVSNCGDSRAVLFRGKEAMPLSVDHKPDREDEYARIENAGGKVIQWQGARVFGVLAMSRSIGDRYLKPYVIPEPEVTFMPRSREDECLILASDGLWDVMNNQEVCEIARRRILMWHKKNGAPPLAERGKGIDPACQAAADYLSMLALQKGSKDNISIIVIDLKAQRKFKTRT
B8: G247P: HAB1 mutant (protein, UniProt Q9CAJ0 23-511, looked up, variant G247P)
Protein phosphatase 2C 16: SPVEITQLKNVTDAADLLSDSENQSFCNGGTECTMEDVSELEEVGEQDLLKTLSDTRSGSSNVFDEDDVLSVVEDNSAVISEGLLVVDAGSELSLSNTAMEIDNGRVLATAIIVGESSIEQVPTAEVLIAGVNQDTNTSEVVIRLPDENSNHLVKGRSVYELDCIPLWGTVSIQGNRSEMEDAFAVSPHFLKLPIKMLMGDHEGMSPSLTHLTGHFFGVYDGHGPHKVADYCRDRLHFALAEEIERIKDELCKRNTGEGRQVQWDKVFTSCFLTVDGEIEGKIGRAVVGSSDKVLEAVASETVGSTAVVALVCSSHIVVSNCGDSRAVLFRGKEAMPLSVDHKPDREDEYARIENAGGKVIQWQGARVFGVLAMSRSIGDRYLKPYVIPEPEVTFMPRSREDECLILASDGLWDVMNNQEVCEIARRRILMWHKKNGAPPLAERGKGIDPACQAAADYLSMLALQKGSKDNISIIVIDLKAQRKFKTRT
B9: G247R: HAB1 mutant (protein, UniProt Q9CAJ0 23-511, looked up, variant G247R)
Protein phosphatase 2C 16: SPVEITQLKNVTDAADLLSDSENQSFCNGGTECTMEDVSELEEVGEQDLLKTLSDTRSGSSNVFDEDDVLSVVEDNSAVISEGLLVVDAGSELSLSNTAMEIDNGRVLATAIIVGESSIEQVPTAEVLIAGVNQDTNTSEVVIRLPDENSNHLVKGRSVYELDCIPLWGTVSIQGNRSEMEDAFAVSPHFLKLPIKMLMGDHEGMSPSLTHLTGHFFGVYDGHGRHKVADYCRDRLHFALAEEIERIKDELCKRNTGEGRQVQWDKVFTSCFLTVDGEIEGKIGRAVVGSSDKVLEAVASETVGSTAVVALVCSSHIVVSNCGDSRAVLFRGKEAMPLSVDHKPDREDEYARIENAGGKVIQWQGARVFGVLAMSRSIGDRYLKPYVIPEPEVTFMPRSREDECLILASDGLWDVMNNQEVCEIARRRILMWHKKNGAPPLAERGKGIDPACQAAADYLSMLALQKGSKDNISIIVIDLKAQRKFKTRT
B10: G247V: HAB1 mutant (protein, UniProt Q9CAJ0 23-511, looked up, variant G247V)
Protein phosphatase 2C 16: SPVEITQLKNVTDAADLLSDSENQSFCNGGTECTMEDVSELEEVGEQDLLKTLSDTRSGSSNVFDEDDVLSVVEDNSAVISEGLLVVDAGSELSLSNTAMEIDNGRVLATAIIVGESSIEQVPTAEVLIAGVNQDTNTSEVVIRLPDENSNHLVKGRSVYELDCIPLWGTVSIQGNRSEMEDAFAVSPHFLKLPIKMLMGDHEGMSPSLTHLTGHFFGVYDGHGVHKVADYCRDRLHFALAEEIERIKDELCKRNTGEGRQVQWDKVFTSCFLTVDGEIEGKIGRAVVGSSDKVLEAVASETVGSTAVVALVCSSHIVVSNCGDSRAVLFRGKEAMPLSVDHKPDREDEYARIENAGGKVIQWQGARVFGVLAMSRSIGDRYLKPYVIPEPEVTFMPRSREDECLILASDGLWDVMNNQEVCEIARRRILMWHKKNGAPPLAERGKGIDPACQAAADYLSMLALQKGSKDNISIIVIDLKAQRKFKTRT

Target: T1, PYR1 (Arabidopsis thaliana, UniProt O49686)
T1 construct: expressed in transfected cells; host or cells: S. cerevisiae strain Y190
T1 sequence (O49686 1-191): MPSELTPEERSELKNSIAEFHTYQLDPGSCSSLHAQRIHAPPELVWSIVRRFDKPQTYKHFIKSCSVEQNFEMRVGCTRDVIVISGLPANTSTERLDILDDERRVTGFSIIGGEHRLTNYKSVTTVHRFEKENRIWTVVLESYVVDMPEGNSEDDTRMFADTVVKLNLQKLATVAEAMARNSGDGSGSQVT
Assay: Yeast two hybrid of pACT-HAB1 site saturation mutants with pBD-PYR1 on 10 μM ABA, β-galactosidase staining
Type: cell-based
Design: key: x: Mutations in HAB1 that disrupt HAB1 interaction with PYR1
Settings: S. cerevisiae Y190, 10 μM ABA; dead = lack of detectable staining in comparison to wild type control
Summary of the method: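 HAB1 (lacking three N-terminal residues) site-saturation mutants in pACT were co-transformed with pBD-PYR1 into S. cerevisiae Y190 and spotted on SD (-Leu,-Trp) with 10 μM ABA. After 2 days at 30 °C, chloroform-lysed colonies were stained for β-galactosidase; "dead" means no detectable staining versus wild-type pair.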

Molecule	Mutations in HAB1 that disrupt HAB1 interaction with PYR1
B1	x
B2	x
B3	x
B4	x
B5	x
B6	x
B7	x
B8	x
B9	x
B10	x
